Test results taken from patent US20170253873A1 (MAYO FOUNDATION FOR MEDICAL EDUCATION AND RESEARCH, published 2017).

B1: GST fusion of the LC (low complexity) domain of SNX9 (other, UniProt Q9Y5X1 63-203, looked up)
chain: DGKDQFSCGNSVADQAFLDSLSASTAQASSSAASNNHQVGSGNDPWSAWSASKSGNWESSEGWGAQPEGAGAQRNTNTPNNWDTAFGHPQAYQGPATGDDDDWDEDWDGPKSSSYFKDSESADAGGAQRGNSRASSSSMKI
notes: domain: LC domain; It overlaps the 1-74 fragment; also called LC domain; not shown: glutathione S-transferase (GST) tag
B2: TAT-SH3-2M (TAT-SH3-2 with G to V mutations at amino acids 36-38) (designed binder)
chain: TVNEGEIITITNPDVVVVWLEGRNIKGERGL
notes: range 21-51; Mutant of TAT-SH3-2; also called Control peptide; not shown: His tag, cell penetrating TAT polypeptide from HIV and HA tag
B3: GST fusion of the first 74 amino acids of SNX9 encoding the SH3 domain (other, UniProt Q9Y5X1 1-74, looked up)
chain: MATKARVMYDFAAEPGNNELTVNEGEIITITNPDVGGGWLEGRNIKGERGLVPTDYVEILPSDGKDQFSCGNSV
notes: range 1-74; also called SH3 domain of sorting nexin 9; SNX9 SH3 domain; not shown: glutathione S-transferase (GST) tag
B4: GST fusion of the carboxyl half of SNX9 (Phox and BAR domains) (other, UniProt Q9Y5X1 204-595, looked up)
chain: PLNKFPGFAKPGTEQYLLAKQLAKPKEKIPIIVGDYGPMWVYPTSTFDCVVADPRKGSKMYGLKSYIEYQLTPTNTNRSVNHRYKHFDWLYERLLVKFGSAIPIPSLPDKQVTGRFEEEFIKMRMERLQAWMTRMCRHPVISESEVFQQFLNFRDEKEWKTGKRKAERDELAGVMIFSTMEPEAPDLDLVEIEQKCEAVGKFTKAMDDGVKELLTVGQEHWKRCTGPLPKEYQKIGKALQSLATVFSSSGYQGETDLNDAITEAGKTYEEIASLVAEQPKKDLHFLMECNHEYKGFLGCFPDIIGTHKGAIEKVKESDKLVATSKITLQDKQNMVKRVSIMSYALQAEMNHFHSNRIYDYNSVIRLYLEQQVQFYETIAEKLRQALSRFPVM
notes: domain: Phox and BAR domains; not shown: glutathione S-transferase (GST) tag
B5: GST fusion of the amino half of SNX9 (SH3 and low complexity (LC) domains) (other, UniProt Q9Y5X1 1-203, looked up)
chain: MATKARVMYDFAAEPGNNELTVNEGEIITITNPDVGGGWLEGRNIKGERGLVPTDYVEILPSDGKDQFSCGNSVADQAFLDSLSASTAQASSSAASNNHQVGSGNDPWSAWSASKSGNWESSEGWGAQPEGAGAQRNTNTPNNWDTAFGHPQAYQGPATGDDDDWDEDWDGPKSSSYFKDSESADAGGAQRGNSRASSSSMKI
notes: domain: SH3 and low complexity (LC) domains; also called amino terminal peptide; not shown: glutathione S-transferase (GST) tag
B6: phosphorylated Smad2 (pSmad2) (other, UniProt Q62432 2-467, looked up)
chain: SSILPFTPPVVKRLLGWKKSAGGSGGAGGGEQNGQEEKWCEKAVKSLVKKLKKTGRLDELEKAITTQNCNTKCVTIPSTCSEIWGLSTANTVDQWDTTGLYSFSEQTRSLDGRLQVSHRKGLPHVIYCRLWRWPDLHSHHELKAIENCEYAFNLKKDEVCVNPYHYQRVETPVLPPVLVPRHTEILTELPPLDDYTHSIPENTNFPAGIEPQSNYIPETPPPGYISEDGETSDQQLNQSMDTGSPAELSPTTLSPVNHSLDLQPVTYSEPAFWCSIAYYELNQRVGETFHASQPSLTVDGFTDPSNSERFCLGLLSNVNRNATVEMTRRHIGRGVRLYYIGGEVFAECLSDSAIFVQSPNCNQRYGWHPATVCKIPPGCNLKIFNNQEFAALLAQSVNQGFEAVYQLTRMCTIRMSFVKGWGAEYRRQTVTSTPCWIELHLNGPLQWLDKVLTQMGSPSVRCSSMS
modifications: phosphorylated (sites not given)
notes: Endogenous protein from AKR-2B cell lysate, detected by Western blot with a phospho-Smad2 specific antibody

Assays:
[1] = biological target: B6; assay: GST pull-down from AKR-2B lysate, Western blot
[2] = biological target: T1, phosphorylated Smad3 (pSmad3) (UniProt Q8BUN5 2-425, phosphorylated (sites not given)); assay: His pull-down from AKR-2B lysate, Western blot
T1 construct: Endogenous protein from AKR-2B cell lysate, detected by Western blot with a phospho-Smad3 specific antibody; also called phosphorylated (p) Smad3
T1 sequence (Q8BUN5 2-425 limits assumed): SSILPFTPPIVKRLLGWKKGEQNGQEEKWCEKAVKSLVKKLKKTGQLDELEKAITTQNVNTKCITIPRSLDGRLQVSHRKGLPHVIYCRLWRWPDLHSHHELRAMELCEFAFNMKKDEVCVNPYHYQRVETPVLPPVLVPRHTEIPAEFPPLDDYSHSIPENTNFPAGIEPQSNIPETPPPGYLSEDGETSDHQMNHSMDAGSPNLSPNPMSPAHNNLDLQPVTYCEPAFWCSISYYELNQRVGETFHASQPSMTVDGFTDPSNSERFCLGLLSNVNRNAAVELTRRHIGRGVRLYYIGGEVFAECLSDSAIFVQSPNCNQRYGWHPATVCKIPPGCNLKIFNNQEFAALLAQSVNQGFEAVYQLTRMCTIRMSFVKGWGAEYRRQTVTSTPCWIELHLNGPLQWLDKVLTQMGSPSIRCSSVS

[3] = biological target: T1, phosphorylated Smad3 (pSmad3); assay: GST pull-down from AKR-2B lysate, Western blot
[4] = biological target: T2, GST full length (FL) SNX9 (UniProt Q9Y5X1 1-595); assay: GST pull-down from AKR-2B lysate, Western blot
T2 construct: GST fusion used in pull-down; also called GST-FL SNX9; not shown: glutathione S-transferase (GST) tag

Question: Does B1 bind [1]?
Answer: Result: no binding

Question: Does B2 bind [2]?
Answer: Result: no binding

Question: Does B3 bind [1]?
Answer: Result: no binding

Question: What does the source list for B4?
Answer: binding result [3]: no binding; binding result [1]: no binding

Question: Does B5 bind [1]?
Answer: Result: no binding

Question: Does B6 bind [4]?
Answer: Result: no binding
